Source: patent US20200115460A1 (TEIJIN PHARMA, published 2020)

Key:
[1] = target: T1, recombinant human IGF-I receptor His tag (305-GR-050, R&D SYSTEMS) (human, UniProt P08069 31-932, limits assumed); assay: SPR, Biacore T200
T1 construct: Bought protein, captured on an anti-His antibody chip; also called IGF-IR-His; not shown: His tag
Description: The sensor chip CM3 immobilized with the anti-His monoclonal antibody was set to Biacore T200, the reaction temperature was set to 36° C., and a running buffer (HBS-EP+, BR-1006-69, GE) was fed at a flow rate 30 μL/min. The amount of the binding ligand was set to about 100 RU, and IGF-IR-His (0.5 to 2×10⁻⁸ mol/L) was added to the sensor chip to be captured by the anti-His monoclonal antibody. Ctrl IgG2a (10 nmol/L) was allowed to react for 1 minute, and HBS-EP+ was fed at a flow rate of 30 μL/min for at least 10 minutes. The analyte and HBS-EP+ were added to flow cells (1 and 2) and flow cells (3 and 4), respectively.
The reaction conditions were set to a binding time of 600 seconds and a dissociation time of 600 seconds. After completion of the reaction, washing was performed with regeneration buffer 1 (0.2% SDS), regeneration buffer 2 (100 mmol/L Tris-HCl (pH 8.5), 1 mol/L NaCl, 15 mmol/L MgCl₂), and regeneration buffer 3 (10 mmol/L glycine-HCl (pH 1.5)) for 1 minute each at a flow rate of 30 μL/min.

[2] = target: T2, human IGF-I receptor (human, UniProt P08069 31-1367); assay: Cell ELISA, fixed cells expressing the receptor
T2 construct: Expressed on transfected P3U1 or HEK 293T cells, or native on human myoblasts; also called hIGFIR; IGF-I receptor of human (NP_000866)
Description: In ELISA, antibody solutions (30 μL) adjusted to predetermined concentrations with 0.1% skimmed milk/3% BSA/PBS were added to respective wells and were subjected to reaction at room temperature for about 1 hour. After washing with a washing liquid (tris buffer containing Tween) twice, anti-mouse-IgG antibody-ALP conjugate solutions (30 μL) adjusted to predetermined concentrations with 0.1% skimmed milk/3% BSA/PBS were added to respective wells and were subjected to reaction at room temperature for about 1 hour. After washing with a washing liquid twice, 100 μL of a substrate (PNPP) was added to each well to start the reaction.

[3] = target: T3, mouse IGF-I receptor (mouse, UniProt Q60751 31-1373); assay: Cell ELISA on P3U1 cells expressing the receptor
T3 construct: Expressed on transfected P3U1 cells; also called NP_034643
T3 sequence (Q60751 other isoform, or with tags, fused parts or gaps limits assumed): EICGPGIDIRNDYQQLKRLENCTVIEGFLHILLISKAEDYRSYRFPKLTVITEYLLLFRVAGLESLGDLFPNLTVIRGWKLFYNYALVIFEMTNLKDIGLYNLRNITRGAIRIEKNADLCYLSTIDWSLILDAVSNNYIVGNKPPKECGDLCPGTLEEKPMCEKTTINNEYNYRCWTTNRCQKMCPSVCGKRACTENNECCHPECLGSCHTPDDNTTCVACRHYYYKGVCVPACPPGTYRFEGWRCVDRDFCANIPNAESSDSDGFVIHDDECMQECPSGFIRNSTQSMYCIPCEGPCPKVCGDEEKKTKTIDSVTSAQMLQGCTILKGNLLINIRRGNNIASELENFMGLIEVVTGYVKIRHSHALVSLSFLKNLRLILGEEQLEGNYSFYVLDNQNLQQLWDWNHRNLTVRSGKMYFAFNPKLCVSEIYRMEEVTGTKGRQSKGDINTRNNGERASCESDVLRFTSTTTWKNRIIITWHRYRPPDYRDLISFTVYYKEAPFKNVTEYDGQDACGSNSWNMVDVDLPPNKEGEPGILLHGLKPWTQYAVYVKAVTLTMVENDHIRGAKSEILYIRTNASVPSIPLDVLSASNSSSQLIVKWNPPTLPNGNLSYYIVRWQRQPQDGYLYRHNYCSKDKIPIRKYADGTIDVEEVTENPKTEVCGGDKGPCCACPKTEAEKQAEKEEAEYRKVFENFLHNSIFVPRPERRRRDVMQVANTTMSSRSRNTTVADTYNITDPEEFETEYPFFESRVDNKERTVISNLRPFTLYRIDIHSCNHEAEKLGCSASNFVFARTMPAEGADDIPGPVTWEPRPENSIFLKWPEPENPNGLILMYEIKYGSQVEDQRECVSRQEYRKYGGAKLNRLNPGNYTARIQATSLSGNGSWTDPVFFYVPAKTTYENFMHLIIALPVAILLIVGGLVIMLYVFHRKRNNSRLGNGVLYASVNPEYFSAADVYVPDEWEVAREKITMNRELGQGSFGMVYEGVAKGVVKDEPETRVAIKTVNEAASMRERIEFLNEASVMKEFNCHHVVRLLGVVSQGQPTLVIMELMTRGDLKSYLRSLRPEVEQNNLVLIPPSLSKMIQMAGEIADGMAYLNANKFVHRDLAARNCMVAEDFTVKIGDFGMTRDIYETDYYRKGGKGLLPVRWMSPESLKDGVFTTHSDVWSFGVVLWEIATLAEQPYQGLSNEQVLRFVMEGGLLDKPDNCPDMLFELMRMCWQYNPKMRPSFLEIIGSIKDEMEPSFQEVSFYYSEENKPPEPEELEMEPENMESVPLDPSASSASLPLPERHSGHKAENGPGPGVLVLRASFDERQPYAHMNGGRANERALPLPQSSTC

[4] = target: T4, rat IGF-I receptor (rat, UniProt P24062 31-1370); assay: Cell ELISA on P3U1 cells expressing the receptor
T4 construct: Expressed on transfected P3U1 cells; also called NP_494694
T4 sequence (P24062 31-1370 limits assumed): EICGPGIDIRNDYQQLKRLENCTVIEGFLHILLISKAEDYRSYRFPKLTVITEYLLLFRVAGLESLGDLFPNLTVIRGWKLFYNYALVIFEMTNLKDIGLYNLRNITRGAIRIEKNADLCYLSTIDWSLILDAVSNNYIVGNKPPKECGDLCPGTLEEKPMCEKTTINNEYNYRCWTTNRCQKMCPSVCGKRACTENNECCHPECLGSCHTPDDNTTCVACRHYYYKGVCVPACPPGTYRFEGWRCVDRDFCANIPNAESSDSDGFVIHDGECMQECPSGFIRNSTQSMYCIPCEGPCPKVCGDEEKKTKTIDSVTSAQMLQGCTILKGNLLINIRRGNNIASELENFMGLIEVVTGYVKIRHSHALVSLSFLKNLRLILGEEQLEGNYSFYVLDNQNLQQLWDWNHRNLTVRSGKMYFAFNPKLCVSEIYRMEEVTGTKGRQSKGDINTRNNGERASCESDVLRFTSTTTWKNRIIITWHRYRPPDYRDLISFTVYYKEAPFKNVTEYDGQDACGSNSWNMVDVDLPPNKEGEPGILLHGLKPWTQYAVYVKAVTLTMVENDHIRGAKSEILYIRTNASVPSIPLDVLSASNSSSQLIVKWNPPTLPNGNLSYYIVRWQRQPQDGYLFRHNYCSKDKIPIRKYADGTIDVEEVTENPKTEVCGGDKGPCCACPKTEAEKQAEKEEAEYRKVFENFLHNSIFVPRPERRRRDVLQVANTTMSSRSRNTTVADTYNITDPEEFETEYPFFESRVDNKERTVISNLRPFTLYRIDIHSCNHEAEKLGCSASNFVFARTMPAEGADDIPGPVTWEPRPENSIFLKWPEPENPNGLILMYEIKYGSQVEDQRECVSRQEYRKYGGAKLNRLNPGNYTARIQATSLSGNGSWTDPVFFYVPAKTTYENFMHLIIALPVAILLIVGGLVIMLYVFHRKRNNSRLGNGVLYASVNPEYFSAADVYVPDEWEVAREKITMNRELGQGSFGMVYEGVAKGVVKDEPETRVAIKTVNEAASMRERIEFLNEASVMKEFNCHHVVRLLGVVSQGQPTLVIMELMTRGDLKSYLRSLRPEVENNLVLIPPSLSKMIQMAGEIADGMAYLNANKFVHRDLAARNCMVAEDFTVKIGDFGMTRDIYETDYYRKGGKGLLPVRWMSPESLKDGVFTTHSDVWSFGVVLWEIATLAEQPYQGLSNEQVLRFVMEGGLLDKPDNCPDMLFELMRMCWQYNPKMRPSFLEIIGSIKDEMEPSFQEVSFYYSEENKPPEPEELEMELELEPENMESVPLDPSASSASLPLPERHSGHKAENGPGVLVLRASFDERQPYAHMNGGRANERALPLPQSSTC

[5] = target: T3, mouse IGF-I receptor; assay: Cell ELISA, 10 nM antibody, fixed P3U1 cells expressing the receptor
Description: (§1) After the lipofection, the P3U1 cells were cultured at least overnight and were added to a 96-well plate (coated with poly-D-lysine) at a concentration of 0.8×10⁵ cells/well and immobilized with 10% buffered formalin (Mildform® 10 NM, Wako), followed by blocking with phosphate buffer containing 3% BSA. The resulting plate was used for ELISA.
(§2) After washing with a washing liquid twice, anti-mouse-IgG antibody-HRP conjugate solutions (30 μL) adjusted to predetermined concentrations with 0.1% skimmed milk/3% BSA/PBS were added to respective wells and were subjected to reaction at room temperature for about 1 hour. After washing with a washing liquid twice, 50 μL of a substrate (TMB) was added to each well to start the reaction. After about 20 minutes, 50 μL of 0.5 M sulfuric acid was added to each well. The absorbances at 450 nm and 550 nm were measured, and the difference between absorbance values at 450 nm and 550 nm was calculated.

[6] = target: T5, rabbit IGF-I receptor (rabbit); assay: as above
T5 construct: Expressed on transfected P3U1 cells; also called XP_017193273
T5 sequence (chain, as listed by the source limits assumed): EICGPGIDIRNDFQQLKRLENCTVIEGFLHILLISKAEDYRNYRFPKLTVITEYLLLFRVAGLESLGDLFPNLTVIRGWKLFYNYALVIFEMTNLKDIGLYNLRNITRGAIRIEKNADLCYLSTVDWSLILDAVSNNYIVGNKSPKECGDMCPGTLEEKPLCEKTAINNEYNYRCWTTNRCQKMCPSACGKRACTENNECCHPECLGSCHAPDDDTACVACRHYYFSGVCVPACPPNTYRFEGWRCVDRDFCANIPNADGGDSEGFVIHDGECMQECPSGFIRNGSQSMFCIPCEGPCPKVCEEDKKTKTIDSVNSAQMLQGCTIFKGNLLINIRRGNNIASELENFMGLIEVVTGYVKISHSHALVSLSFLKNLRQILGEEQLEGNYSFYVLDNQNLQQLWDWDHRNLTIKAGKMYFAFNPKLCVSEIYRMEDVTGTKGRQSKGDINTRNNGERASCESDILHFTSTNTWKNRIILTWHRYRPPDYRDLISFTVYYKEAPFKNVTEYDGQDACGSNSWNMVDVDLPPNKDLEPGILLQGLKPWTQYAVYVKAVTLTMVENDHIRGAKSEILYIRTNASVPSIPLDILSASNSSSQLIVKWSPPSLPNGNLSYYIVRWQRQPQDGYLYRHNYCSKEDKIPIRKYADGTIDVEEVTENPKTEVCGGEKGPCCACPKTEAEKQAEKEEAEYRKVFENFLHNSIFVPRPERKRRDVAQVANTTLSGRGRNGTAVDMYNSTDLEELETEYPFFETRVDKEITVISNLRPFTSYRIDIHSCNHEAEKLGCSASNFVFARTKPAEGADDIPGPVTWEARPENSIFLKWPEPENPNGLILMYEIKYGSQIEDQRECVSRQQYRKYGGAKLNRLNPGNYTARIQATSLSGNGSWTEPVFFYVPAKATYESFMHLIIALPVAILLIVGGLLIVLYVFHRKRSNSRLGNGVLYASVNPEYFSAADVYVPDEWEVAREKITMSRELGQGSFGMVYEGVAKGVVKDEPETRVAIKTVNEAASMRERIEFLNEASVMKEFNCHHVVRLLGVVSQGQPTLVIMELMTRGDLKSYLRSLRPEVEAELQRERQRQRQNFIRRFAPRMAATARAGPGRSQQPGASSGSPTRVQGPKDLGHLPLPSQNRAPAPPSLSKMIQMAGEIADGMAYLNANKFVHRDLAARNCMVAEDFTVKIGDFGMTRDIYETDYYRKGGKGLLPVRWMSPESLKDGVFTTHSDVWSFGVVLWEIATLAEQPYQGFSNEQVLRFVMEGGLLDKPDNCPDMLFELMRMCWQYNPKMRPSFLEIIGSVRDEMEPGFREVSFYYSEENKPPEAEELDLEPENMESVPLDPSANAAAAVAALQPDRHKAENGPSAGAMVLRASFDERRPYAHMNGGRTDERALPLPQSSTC
Description: as §1, §2

[7] = target: T6, cynomolgus monkey IGF-I receptor (cynomolgus monkey, UniProt P08069 31-1367 (human entry)); assay: as above
T6 construct: Expressed on transfected P3U1 cells; also called NP_001248281
Description: as §1, §2

[8] = target: T7, guinea pig IGF-I receptor (guinea pig, UniProt P08069 31-1367 (human entry)); assay: as above
T7 construct: Expressed on transfected P3U1 cells, or native on guinea pig myoblasts; also called XP_003475316
Description: as §1, §2

[9] = target: T2, human IGF-I receptor; assay: as above
Description: as §1, §2

[10] = target: T4, rat IGF-I receptor; assay: as above
Description: as §1, §2

[11] = target: T7, guinea pig IGF-I receptor; assay: cell-based or functional assay
[12] = target: T2, human IGF-I receptor; assay: cell-based or functional assay

B1: IGF11-16 (antibody, mouse IgG1, kappa, V domains shown)
VH: QIQLQQPGAELVKPGASVKLSCKAPGYTFTSYWMHWVKQRPGQGLEWIGETNPSNSVTNYNEKFKSKATLTVDKSSSTAYMQLSSLTSEDSAVYYCTIGRGRGFAYWGQGTLVTVSA
VL: DIQMNQSPSSLSASLGDTITITCRASQNINFWLSWCQQKPGNIPKLLIYKASNLHTGVPSRFSGSGSGTDFTLTISSLQPEDIATYYCLQGQSYPYTFGGGTKLEIKR
notes: no cleavage site is stated; also called IGF-I receptor agonist antibody; IGF11-16 antibody
[1]
  KD relative to that of IGF-I: < 0.02 fold of IGF-I
  ka relative to that of IGF-I: ~0.2 fold of IGF-I
  kd relative to that of IGF-I: < 0.001 fold of IGF-I
[2]
  avidity (absorbance difference 405-550 nm, Mock cells = 1) at 0.5 nM: 2.9 fold of Mock cells
  avidity (absorbance difference 405-550 nm, Mock cells = 1) at 5 nM: 3.7 fold of Mock cells
[3]
  binding result: no binding (tested: 10 nM)
[4]
  binding result: no binding (tested: 10 nM)
[5]
  Avidity (absorbance difference 450-550 nm, Mock cells = 1): 0.9 fold of Mock cells
[6]
  Avidity (absorbance difference 450-550 nm, Mock cells = 1): 5.4 fold of Mock cells
[7]
  Avidity (absorbance difference 450-550 nm, Mock cells = 1): 5.4 fold of Mock cells
[8]
  Avidity (absorbance difference 450-550 nm, Mock cells = 1): 5.3 fold of Mock cells
[9]
  Avidity (absorbance difference 450-550 nm, Mock cells = 1): 5.4 fold of Mock cells
[10]
  Avidity (absorbance difference 450-550 nm, Mock cells = 1): 1 fold of Mock cells
[11]
  EC50 of the myoblast proliferative activity, guinea pig myoblasts: 4 pM
[12]
  EC50 of the myoblast proliferative activity, human myoblasts: 4 pM
